Test system: Escherichia coli TOP10
Assay: shrunken log2 fold change of peptide-encoding DNA abundance (4.5 h post-induction vs induction); higher = less antimicrobial activity (less host growth inhibition)
Settings: time post-induction: 4.5 h; library: site-saturation at positions 5, 18, 19, 20
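Also: peptides expressed intracellularly from a pBAD plasmid library in pooled LB shake-flask culture, induced with 0.3% L-arabinose, DNA abundance read by NGS, three biological replicates, DESeq2 with apeglm shrinkage.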

Sequence | shrunken log2 fold change
RRIRHRPPRLPRPRPRPSEMPRP | -0.0714
RRIRFRPPRLPRPRPRPTHPPRP | -0.0806
RRIRERPPRLPRPRPRPGCMPRP | -0.00389
RRIRKRPPRLPRPRPRPNSHPRP | -0.272
RRIRMRPPRLPRPRPRPCKDPRP | -0.0302
RRIRKRPPRLPRPRPRPGCQPRP | 0.702
RRIRYRPPRLPRPRPRPQEYPRP | -0.00804
RRIRRRPPRLPRPRPRPFWAPRP | 0.0811
RRIRERPPRLPRPRPRPLPKPRP | 0.222
RRIRGRPPRLPRPRPRPLCKPRP | 0.529
RRIRERPPRLPRPRPRPIHIPRP | 0.0108
RRIRQRPPRLPRPRPRPMCNPRP | -0.389
RRIRIRPPRLPRPRPRPQCNPRP | -0.0824
RRIRPRPPRLPRPRPRPKTMPRP | 0.0176
RRIRCRPPRLPRPRPRPTSNPRP | -0.1
RRIRVRPPRLPRPRPRPTESPRP | -0.00266
RRIRVRPPRLPRPRPRPTFWPRP | 0.3
RRIRNRPPRLPRPRPRPWSWPRP | 0.266
RRIRKRPPRLPRPRPRPFIIPRP | -0.268
RRIRTRPPRLPRPRPRPYEDPRP | -0.0155
RRIRFRPPRLPRPRPRPSECPRP | -0.472
RRIRLRPPRLPRPRPRPIQMPRP | -0.0252
RRIRARPPRLPRPRPRPKNMPRP | -0.191
RRIRNRPPRLPRPRPRPRQIPRP | 0.151
RRIRARPPRLPRPRPRPLLYPRP | 0.09

Sequence | shrunken log2 fold change
RRIRARPPRLPRPRPRPQFRPRP | -0.123
RRIRIRPPRLPRPRPRPPQLPRP | -0.122
RRIRARPPRLPRPRPRPYWPPRP | -0.00546
RRIRDRPPRLPRPRPRPSMIPRP | -0.162
RRIRVRPPRLPRPRPRPLIDPRP | 0.119
RRIRYRPPRLPRPRPRPIHQPRP | -0.0218
RRIRIRPPRLPRPRPRPWWSPRP | -0.0718
RRIRFRPPRLPRPRPRPSQDPRP | 0.0128
RRIRERPPRLPRPRPRPDMFPRP | -0.0153
RRIRVRPPRLPRPRPRPIQPPRP | 0.0215
RRIRTRPPRLPRPRPRPFDNPRP | -1.32
RRIRWRPPRLPRPRPRPECSPRP | 0.966
RRIRHRPPRLPRPRPRPVEKPRP | -0.0342
RRIRYRPPRLPRPRPRPTIMPRP | -1.29
RRIRDRPPRLPRPRPRPVCHPRP | -0.0164
RRIRHRPPRLPRPRPRPDAYPRP | 0.027
RRIRLRPPRLPRPRPRPHHAPRP | -0.058
RRIRIRPPRLPRPRPRPNFQPRP | -0.417
RRIRTRPPRLPRPRPRPAKEPRP | -0.0337
RRIRIRPPRLPRPRPRPILNPRP | -0.73
RRIRNRPPRLPRPRPRPIQMPRP | -0.0365
RRIRHRPPRLPRPRPRPPQGPRP | 0.133
RRIRNRPPRLPRPRPRPESSPRP | -0.00568
RRIRKRPPRLPRPRPRPDGAPRP | 0.632
RRIRLRPPRLPRPRPRPDRTPRP | 0.0027

Sequence | shrunken log2 fold change
RRIRVRPPRLPRPRPRPADMPRP | -0.173
RRIRVRPPRLPRPRPRPTTLPRP | -0.111
RRIRQRPPRLPRPRPRPHGNPRP | 0.0941
RRIRWRPPRLPRPRPRPHAMPRP | 0.00797
RRIRNRPPRLPRPRPRPMPLPRP | -0.0789
RRIRKRPPRLPRPRPRPIHAPRP | -0.000921
RRIRRRPPRLPRPRPRPQNEPRP | 0.0801
RRIRTRPPRLPRPRPRPAMIPRP | -0.0108
RRIRQRPPRLPRPRPRPIKKPRP | -0.1
RRIRARPPRLPRPRPRPDWPPRP | 0.98
RRIRERPPRLPRPRPRPLPGPRP | -0.165
RRIRSRPPRLPRPRPRPPNLPRP | -0.148
RRIRFRPPRLPRPRPRPHSFPRP | 0.00365
RRIRQRPPRLPRPRPRPYWKPRP | 0.000139
RRIRMRPPRLPRPRPRPKADPRP | 2.35
RRIRFRPPRLPRPRPRPDILPRP | -0.119
RRIRYRPPRLPRPRPRPWQHPRP | -0.185
RRIRRRPPRLPRPRPRPRGRPRP | 0.319
RRIRFRPPRLPRPRPRPSFVPRP | -0.828
RRIRERPPRLPRPRPRPAYIPRP | -0.168
RRIRARPPRLPRPRPRPINIPRP | -0.334
RRIRCRPPRLPRPRPRPKGLPRP | -0.134
RRIRWRPPRLPRPRPRPHTEPRP | -0.0123
RRIRQRPPRLPRPRPRPNYNPRP | -0.0928
RRIRIRPPRLPRPRPRPGDPPRP | -0.0811

Sequence | shrunken log2 fold change
RRIRDRPPRLPRPRPRPLTIPRP | -0.257
RRIRRRPPRLPRPRPRPMCAPRP | 0.193
RRIRIRPPRLPRPRPRPNNGPRP | -0.589
RRIRERPPRLPRPRPRPLHHPRP | -0.458
RRIRDRPPRLPRPRPRPNHPPRP | -0.222
RRIRMRPPRLPRPRPRPKIMPRP | -0.208
RRIRQRPPRLPRPRPRPFTLPRP | -0.0549
RRIRPRPPRLPRPRPRPSHKPRP | -0.0374
RRIRNRPPRLPRPRPRPGNCPRP | -0.00183
RRIRRRPPRLPRPRPRPHTVPRP | 0.0423
RRIRTRPPRLPRPRPRPPAYPRP | -0.0816
RRIRTRPPRLPRPRPRPRFFPRP | 0.0438
RRIRARPPRLPRPRPRPPYDPRP | 0.0295
RRIRVRPPRLPRPRPRPYEYPRP | -0.137
RRIRKRPPRLPRPRPRPALCPRP | 0.146
RRIRYRPPRLPRPRPRPHYKPRP | -0.316
RRIRYRPPRLPRPRPRPCRAPRP | -0.459
RRIRWRPPRLPRPRPRPKQMPRP | 0.113
RRIRYRPPRLPRPRPRPGVQPRP | 0.0651
RRIRPRPPRLPRPRPRPKANPRP | 0.0243
RRIRMRPPRLPRPRPRPHIQPRP | -0.421
RRIRCRPPRLPRPRPRPFRSPRP | -0.142
RRIRPRPPRLPRPRPRPREEPRP | 0.111
RRIRFRPPRLPRPRPRPKMAPRP | -0.0582
RRIRSRPPRLPRPRPRPQRFPRP | -0.152

Sequence | shrunken log2 fold change
RRIRIRPPRLPRPRPRPINPPRP | -0.362
RRIRIRPPRLPRPRPRPVEYPRP | -0.116
RRIRNRPPRLPRPRPRPLLNPRP | -0.443
RRIRMRPPRLPRPRPRPAKWPRP | 0.708
RRIRKRPPRLPRPRPRPITLPRP | -0.0554
RRIRVRPPRLPRPRPRPCLQPRP | -0.421
RRIRWRPPRLPRPRPRPHNQPRP | -0.445
RRIRARPPRLPRPRPRPYIQPRP | -0.873
RRIRFRPPRLPRPRPRPSNFPRP | -0.129
RRIRNRPPRLPRPRPRPCYFPRP | -0.408
RRIRWRPPRLPRPRPRPFNFPRP | -0.272
RRIRHRPPRLPRPRPRPNNNPRP | -1.09
RRIRTRPPRLPRPRPRPYFDPRP | -0.738
RRIRDRPPRLPRPRPRPREAPRP | -0.0547
RRIRMRPPRLPRPRPRPVKDPRP | 0.0812
RRIRSRPPRLPRPRPRPMKMPRP | -0.0963
RRIRKRPPRLPRPRPRPRKWPRP | 0.448
RRIRPRPPRLPRPRPRPFHEPRP | -0.187
RRIRIRPPRLPRPRPRPTFAPRP | -0.176
RRIRLRPPRLPRPRPRPESCPRP | 0.0209
RRIRPRPPRLPRPRPRPMCVPRP | 0.076
RRIRMRPPRLPRPRPRPQWFPRP | -0.0662
RRIRKRPPRLPRPRPRPPCCPRP | 0.39
RRIRARPPRLPRPRPRPASYPRP | 0.187
RRIRERPPRLPRPRPRPTKAPRP | 0.043
